Source: PMC5784169, “Repression of Akt3 gene transcription by the tumor suppressor RIZ1”

What was measured:
[1] = target: T1, GST-RIZ1-Zf1-3 (UniProt Q13029 360-506); assay: EMSA; abolished by 30-fold excess unlabeled probe; LightShift Chemiluminescent EMSA kit, native PAGE; buffer, salt, pH and temperature not stated; conditions: protein: recombinant; tags: N-terminal GST (pGEX-KG); label: 3' biotin; blunt
T1 sequence: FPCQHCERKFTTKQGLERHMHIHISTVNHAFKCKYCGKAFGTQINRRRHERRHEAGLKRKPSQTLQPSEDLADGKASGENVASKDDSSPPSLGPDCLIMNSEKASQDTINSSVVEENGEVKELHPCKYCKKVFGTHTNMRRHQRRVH

[2] = target: T2, GST-RIZ1-Zf8 (UniProt Q13029 1455-1478); assay: as above; conditions: protein: recombinant; tags: N-terminal GST (pGEX-KG); label: 3' biotin; blunt
T2 chain: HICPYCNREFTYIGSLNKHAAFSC

B1: mouse Akt3 promoter CpG146 probe (dsDNA)
DNA 1: GGGGAGGGGCCGTCTGCGCATGTGGCGGGAGTGCGGGCGA
DNA 2: TCGCCCGCACTCCCGCCACATGCGCAGACGGCCCCTCCCC
B1: binds [1]; binds [2].
